To fix the notation:
T1: 36mer repeat peptide (NANP)9 (Plasmodium falciparum repeat, synthetic …)
T1 construct: printed as (NANP)9, 36mer; nine NANP tetrapeptides of the central repeat region of Plasmodium falciparum circumsporozoite protein; source: created by Genscript, as previously described [21,40]
T1 chain: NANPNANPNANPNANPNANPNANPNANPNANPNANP

B1: L20 (antibody, V domains shown)
VH: EVQLVESGGGLVQPGRSLRLSCAASGFTFDDYAMHWVRQAPGKGLEWVSGINWNSGSIGYADSVKGRFTISRDNARNSLYLQMNGLRAEDTAFYYCAKDLRAYYYGSGSPWGFHHWGQGTLVTVSS
VL: QSALTQPPSASGSPGQSVTISCTGTSSDVGGYNYVSWYEQHPGKAPKLLIYEVSKRPSGVPDRFSGSKSGNTASLTVSGLQAEDEADYYCSSYAGSNNVVFGGGTKLTVL
B2: L7 (antibody, V domains shown)
VH: QLQLQESGPGLVKPSETLSLTCTVSGGSISSSNYYWDWIRQPPGKGLEWIGSINYSGSTYYNPSLKSRVTISVDTSKIQFSLKMSSVTAADTAVYYCARRRVDFWSGYNWFDPWGQGTLVTVSS
VL: QPVLTQPPSASASMGASVTLTCTLSSGYSKYKVDWYQQRPGKGPRFVMRAGTGGIVGSKGDGIPDRFSVLGSGLNRYLTIKNIQEEDESDYHCGADHGSGSNFVYVFGTGTKVTIL
B3: L4 (antibody, V domains shown)
VH: QLQLQESGPRLVKPSETLSLTCTVSGGSISRTSYYWDWIRQPPGKGLEWIGSIYYRGSTYHNPSLKSRVTISVDTSKNQFSLRLTSVTAADTAVYYCARPKNLGVVAATNWFDPWGQGTLVTVSS
VL: QSVLTQPPSVSGAPGQRVTISCTGSSSNIGATYDVHWYQQLPGTAPKLLIYDNNNRPSGVPDRFSGSKSGTSASLAITGLQADDEADYYCQSYDSSLSGVVFGGGTKLTVL
B4: L15 (antibody, V domains shown)
VH: EVQLVESGGVVVQPGGSLRLSCAASGFTFDDYTMHWVRQAPGKGLEWVSLISWDGGTTYYADSVKGRFTISRDNSKNSLYLRMNSLRTEDTALYYCAKGLVAQWLRGDYYYGLHVWGQGTTVTVSS
VL: QSALTQPASVSGSPGQSITISCTGTSSDVGAYNSVSWYQQHPGKAPKLMIYDVTNRPSGVSNRFSGSKSGNTASLTISGLQAEDEADYYCSSYTITNTLVFGGGTKLTVL
B5: 1710 (antibody, V domains shown)
VH: EVQLQESGGGLVKPGGSLRLSCAASGFTFSSYSMNWVRQAPGKGLEWVSSITSSSSYIYYADSVKGRFTISRDNAKNSLYLQMNSLRAEDTAVYYCARDPGIAAADNHWFDPWGQGTLVTVSS
VL: not shown

The first test addresses T2, full-length recombinant PfCSP (FL-rCSP) (Plasmodium falciparum 3D7 (clone of …, UniProt Q7K740)).
T2 construct: also called PfCSP_3D7
The test is described as follows: ELISA. The note with it: both partners purified. (In an ELISA, binding on a coated surface is turned into a signal by an enzyme label.)
On to B1, for which the binding result was “binds”.
On the same count and under the same terms, in the case of B2 it was “binds”; in that of B3, “binds”; in that of B4, “binds”.

The next test addresses T3, recombinant C-CSP construct (PfCSP_3D7 amino acids 295–374) (Plasmodium falciparum 3D7, UniProt Q7K740).
T3 construct: also called C-terminal domain of PfCSP
Briefly: ELISA. As to conditions: both partners purified.
For B1, the binding result is “binds”.
On the same count and under the same terms, for B2 the value was “binds”; for B3, “binds”.
Take B5: the binding result was “binds”.
In the case of B4, the binding result is given as “binds”.

The next test deals with T4, N-CSP (N-terminus of PfCSP) (Plasmodium falciparum 3D7, UniProt Q7K740).
T4 construct: source: created by Genscript, as previously described [21,40]
The test is described as follows: ELISA. The note with it: both partners purified.
B1: the binding result is reported as “no binding (tested: 5.0 μg/mL)”.
Take B2: the binding result is given as “no binding (tested: 5.0 μg/mL)”.
Same read-out and setting: for B3 the value was “no binding (tested: 5.0 μg/mL)”; for B5, “no binding (tested: 5.0 μg/mL)”; for B4, “no binding (tested: 5.0 μg/mL)”.

For another test, the target named is full-length PfCSP on transgenic P. berghei sporozoites (Pb-PfCSP-GFP/Luc-SPZ) (Plasmodium falciparum, 3D7 (transgene …, UniProt Q7K740)). Briefly: flow cytometry on cells; 20 μg/mL mAb on midgut (MG) Pb-PfCSP-SPZ; goat anti-human IgG-Alexa Fluor 647. As to conditions: one partner purified. (In general: Flow cytometry measures light scatter and fluorescence of single cells or particles in a stream.)
Turning to B4, the binding result is on record as “binds”.

The next test has as its target T1, 36mer repeat peptide (NANP)9. Briefly: ELISA; antigen coated at 0.5 μg/mL in bicarbonate buffer overnight at 4°C; mAbs 5x10^-7–5.0 μg/mL, 2 hrs at 37°C; HRP-conjugated goat anti-human IgG; AUC of OD450. As to conditions: both partners purified.
Turning to B1, the binding result was “no binding (tested: 5.0 μg/mL)”.
For the molecule B2, the binding result is recorded as “no binding (tested: 5.0 μg/mL)”.
B3: the binding result was “no binding (tested: 5.0 μg/mL)”.
Regarding B4, the binding result was “no binding (tested: 5.0 μg/mL)”.

(Values after publication PMC8675929 (PLoS Pathogens, 2021).)
